29 molecules from PMC9352680, “A comprehensive thermodynamic model for RNA binding by the Saccharomyces cerevisiae Pumilio protein PUF4” can be followed below.

Where only a bound is given, the exact number is not on record here.

To fix the notation:
T1: PUF4 RNA-binding domain (Saccharomyces cerevisiae, UniProt P25339 537-888)
T1 sequence: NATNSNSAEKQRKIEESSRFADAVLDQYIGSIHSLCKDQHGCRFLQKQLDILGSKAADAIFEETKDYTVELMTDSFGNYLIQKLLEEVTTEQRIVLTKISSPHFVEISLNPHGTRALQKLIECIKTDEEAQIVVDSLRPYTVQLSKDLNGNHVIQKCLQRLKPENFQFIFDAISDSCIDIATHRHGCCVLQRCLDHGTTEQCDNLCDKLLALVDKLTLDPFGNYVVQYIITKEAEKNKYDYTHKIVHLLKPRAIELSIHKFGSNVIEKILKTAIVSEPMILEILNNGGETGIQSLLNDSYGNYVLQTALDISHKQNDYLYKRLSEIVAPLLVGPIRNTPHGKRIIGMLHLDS

The data set deals with T1, PUF4 RNA-binding domain. The experiment in a line: Mg; RNA-MaP; 20 mM Na-HEPES pH 7.4, 30 mM KOAc, 0.75 mM MgCl2, 0.1% Tween-20, 5% glycerol, 0.1 mg/mL BSA, 2 mM DTT; 25 C; 0.0125-409.6 nM protein. Particulars: tags: N-His6-TEV cleaved; C-SNAP kept, Cy3B-labelled; label: tethered on chip by stalled RNA polymerase.
As a reminder, the Kd is the concentration at which binding is half-saturated. Read a low Kd as tighter binding. In turn, UCUCUUUGUAUAUUCCUCUCUU (ssRNA) [Ic_S1_P5E.1_K5.1_C5.1_H5.1_A5.1_[T6A]_[A7T]_F5.1_[T9C]_[A10C]_T5.1] registered a Kd of 5.93 nM.

On to UCUCUUUGUAAUCCGCUCUCUU (ssRNA) [Ic_S1_P5E.1_K5.1_C5.1_H5.1_A5.1_[T5A]_[A7C]_F5.1_[T8C]_[T9G]_[A10C]_T5.1], for which the Kd amounted to 1660 nM. Against the preceding molecule, the Kd is about 280-fold higher.

UCUCUUUGUAUACCCGUCUCUU (ssRNA) [Ic_S1_P5E.1_K5.1_C5.1_H5.1_A5.1_[T6A]_[A7C]_F5.1_[T8C]_[T9C]_[A10G]_T5.1] gave a Kd of 675 nM. Against the preceding molecule, the Kd is about 2.5-fold lower.

Consider UCUCUUUGUAAUUCCUUCUCUU (ssRNA) [Ic_S1_P5E.1_K5.1_C5.1_H5.1_A5.1_[T5A]_[A7T]_F5.1_[T8C]_[T9C]_[A10T]_T5.1], for which the equilibrium dissociation constant (Kd) stood at 448 nM. Compared with the last molecule, the Kd is about 1.5-fold lower.

Molecule UCUCUUUGUAAUACCUUCUCUU (ssRNA) [Ic_S1_P5E.1_K5.1_C5.1_H5.1_A5.1_[T5A]_F5.1_[T8C]_[T9C]_[A10T]_T5.1] gave a Kd of 690 nM.

UCUCUUUGUAGCAUACUCUCUU (ssRNA) [Ic_S1_P5E.1_K5.1_C5.1_H5.1_A5.1_[T5G]_[T6C]_F5.1_[T9A]_[A10C]_T5.1] showed a Kd of 8.64 nM. This Kd is about 80-fold lower than that of the molecule before.

In turn, UCUCUUUGUAAAUACUUCUCUU (ssRNA) [Ic_S1_P5E.1_K5.1_C5.1_H5.1_A5.1_[T5A]_[T6A]_[A7T]_F5.1_[T8A]_[T9C]_[A10T]_T5.1] had a Kd of 37.4 nM.

As for UCUCUUUGUAUCGAUCUCUCUU (ssRNA) [Ic_S1_P5E.1_K5.1_C5.1_H5.1_A5.1_[T6C]_[A7G]_F5.1_[T8A]_[A10C]_T5.1], the equilibrium dissociation constant (Kd) stood at 1870 nM.

UCUCUUUGUAUCAUGCUCUCUU (ssRNA) [Ic_S1_P5E.1_K5.1_C5.1_H5.1_A5.1_[T6C]_F5.1_[T9G]_[A10C]_T5.1]: binding was characterised by a dissociation constant (Kd) of 11.3 nM.

The molecule UCUCUUUGUACAAUCUUCUCUU (ssRNA) [Ic_S1_P5E.1_K5.1_C5.1_H5.1_A5.1_[T5C]_[T6A]_F5.1_[T9C]_[A10T]_T5.1] displayed a dissociation constant Kd of 25.9 nM. Compared with the last molecule, the Kd is about 2.3-fold higher.

Consider UCUCUUUCUUUAUAUCUCUU (ssRNA) [Ib_S1_P3E.1_K3.1_C3.1_H3.1_[G2C]_[A4T]_A3.1_F3.1_T3.1], for which the dissociation constant (Kd) was more than 2300 nM.

In turn, UCUCUUUGUAUGCCAUUCUCUU (ssRNA) [Ic_S1_P5E.1_K5.1_C5.1_H5.1_A5.1_[T6G]_[A7C]_F5.1_[T8C]_[T9A]_[A10T]_T5.1] had a Kd of 100 nM.

With UCUCUUUGUAUCCCGCUCUCUU (ssRNA) [Ic_S1_P5E.1_K5.1_C5.1_H5.1_A5.1_[T6C]_[A7C]_F5.1_[T8C]_[T9G]_[A10C]_T5.1], the dissociation constant (Kd) was 1690 nM.

On to UCUCUUUGUAAGUUAGUCUCUU (ssRNA) [Ic_S1_P5E.1_K5.1_C5.1_H5.1_A5.1_[T5A]_[T6G]_[A7T]_F5.1_[T9A]_[A10G]_T5.1], for which the equilibrium dissociation constant (Kd) was 17.2 nM.

The molecule UCUCUUUGUAGCGUAAUCUCUU (ssRNA) [Ic_S1_P5E.1_K5.1_C5.1_H5.1_A5.1_[T5G]_[T6C]_[A7G]_F5.1_[T9A]_T5.1] showed a Kd of 300 nM. This Kd lies about 17-fold higher than the previous one.

UCUCUUUGUAUUUUCUUCUCUU (ssRNA) [Ic_S1_P5E.1_K5.1_C5.1_H5.1_A5.1_[A7T]_F5.1_[T9C]_[A10T]_T5.1] displayed a dissociation constant Kd of 34.8 nM.

UCUCUUUUUGUAUAUCUCUU (ssRNA) [Ib_S1_P3E.1_K3.1_C3.1_H3.1_[G2T]_[A4G]_A3.1_F3.1_T3.1] showed a Kd of 25.1 nM. The Kd values of the last two molecules are within 1.5-fold of each other.

UCUCUUUGUAACACCAUCUCUU (ssRNA) [Ic_S1_P5E.1_K5.1_C5.1_H5.1_A5.1_[T5A]_[T6C]_F5.1_[T8C]_[T9C]_T5.1] registered a Kd of 111 nM.

Molecule UCUCUUUGUACUUGUUUCUCUU (ssRNA) [Ic_S1_P5E.1_K5.1_C5.1_H5.1_A5.1_[T5C]_[A7T]_F5.1_[T8G]_[A10T]_T5.1] had an equilibrium dissociation constant (Kd) of 87.4 nM.

As to UCUCUUUGUAAUCAUCUCUCUU (ssRNA) [Ic_S1_P5E.1_K5.1_C5.1_H5.1_A5.1_[T5A]_[A7C]_F5.1_[T8A]_[A10C]_T5.1], the Kd worked out at 482 nM.

For UCUCUUUGUAGCCCAAUCUCUU (ssRNA) [Ic_S1_P5E.1_K5.1_C5.1_H5.1_A5.1_[T5G]_[T6C]_[A7C]_F5.1_[T8C]_[T9A]_T5.1], the Kd is more than 2300 nM.

UCUCUUUGUACGUGUUUCUCUU (ssRNA) [Ic_S1_P5E.1_K5.1_C5.1_H5.1_A5.1_[T5C]_[T6G]_[A7T]_F5.1_[T8G]_[A10T]_T5.1] displayed a Kd of 98.8 nM.

UCUCUUUGUAUGUAAGUCUCUU (ssRNA) [Ic_S1_P5E.1_K5.1_C5.1_H5.1_A5.1_[T6G]_[A7T]_F5.1_[T8A]_[T9A]_[A10G]_T5.1]: binding was characterised by a dissociation constant (Kd) of 446 nM.

UCUCUUUGUAACACCUUCUCUU (ssRNA) [Ic_S1_P5E.1_K5.1_C5.1_H5.1_A5.1_[T5A]_[T6C]_F5.1_[T8C]_[T9C]_[A10T]_T5.1] showed an equilibrium dissociation constant (Kd) of 621 nM.

UCUCUUUGUACUGUGUUCUCUU (ssRNA) [Ic_S1_P5E.1_K5.1_C5.1_H5.1_A5.1_[T5C]_[A7G]_F5.1_[T9G]_[A10T]_T5.1] had a Kd of 27.2 nM.

In the case of UCUCUUUGUAGCUGCCUCUCUU (ssRNA) [Ic_S1_P5E.1_K5.1_C5.1_H5.1_A5.1_[T5G]_[T6C]_[A7T]_F5.1_[T8G]_[T9C]_[A10C]_T5.1], the Kd was more than 2300 nM.

In the case of UCUCUUUUUUUAUAUCUCUU (ssRNA) [Ib_S1_P3E.1_K3.1_C3.1_H3.1_[G2T]_[A4T]_A3.1_F3.1_T3.1], the Kd was more than 2300 nM.

For UCUCUUUGUACCUGCUUCUCUU (ssRNA) [Ic_S1_P5E.1_K5.1_C5.1_H5.1_A5.1_[T5C]_[T6C]_[A7T]_F5.1_[T8G]_[T9C]_[A10T]_T5.1], binding was put at a Kd of 378 nM.

UCUCUUUGUACUUACGUCUCUU (ssRNA) [Ic_S1_P5E.1_K5.1_C5.1_H5.1_A5.1_[T5C]_[A7T]_F5.1_[T8A]_[T9C]_[A10G]_T5.1] came in with a Kd of 504 nM. The Kd values of the last two molecules are within 1.5-fold of each other.
